Laboratory results reported in EP0896625B1.

Legend:
Assay in all cases: cell-based or functional assay
[1] = molecular target: Native ONCONASE (Rana pipiens)
[2] = molecular target: recombinant human eosinophil-derived neurotoxin (human)
rEDN(1-21)rOncG26 = molecular target: rEDN(1-21)rOncG26
[3] = molecular target: rEDN(1-21)rOnc (human; Rana pipiens)
[4] = molecular target: [Met-(-1)]rOnc (Rana pipiens)
[5] = molecular target: [Met-(-1)]rOncG20 (Rana pipiens)

Work on “Placental ribonuclease inhibitor (from UniProt P13489 2-461)” yielded a Fold Difference, (+)PRI against (-)PRI [1] of 1.2 fold, an IC50 (ng/ml), (+)PRI, inhibition of protein synthesis in the rabbit reticulocyte lysate [1] of 0.24 ng/mL and a Fold Difference, (+)PRI against (-)PRI [2] greater than 30.7 fold. It also gave an IC50 (ng/ml), (+)PRI, inhibition of protein synthesis in the rabbit reticulocyte lysate [2] greater than 40 ng/mL, a Fold Difference, (+)PRI against (-)PRI (rEDN(1-21)rOncG26) of 21 fold and an IC50 (ng/ml), (+)PRI, inhibition of protein synthesis in the rabbit reticulocyte lysate (rEDN(1-21)rOncG26) of 600 ng/mL. For the same substance, the IC50 (ng/ml), (+)PRI, inhibition of protein synthesis in the rabbit reticulocyte lysate [3] was 3200 ng/mL, the Fold Difference, (+)PRI against (-)PRI [4] was 1.4 fold and the IC50 (ng/ml), (+)PRI, inhibition of protein synthesis in the rabbit reticulocyte lysate [4] was 140 ng/mL. For the same substance, the Fold Difference, (+)PRI against (-)PRI [5] was 0.9 fold and the IC50 (ng/ml), (+)PRI, inhibition of protein synthesis in the rabbit reticulocyte lysate [5] was 24 ng/mL.
